This note sets out measurements from FireProtDB (doi:10.1021/bi011146t).

For the series the following is noted: Alicyclobacillus acidocaldarius subsp. acidocaldarius, pH 7.5, 20 °C, CD, sodium phosphate 20 mM, reversible: no.

Regarding wild type (from UniProt Q7SIG1), for the setting “GdnHCl”, the denaturant m value was found to be 2.08 kcal/mol/M, the “denaturant midpoint (higher = more stable)” value worked out at 1.9 M and the unfolding free energy was 4.3 kcal/mol. Also, where the note is “Urea”, the denaturant m value is 2.63 kcal/mol/M, the “denaturant midpoint (higher = more stable)” value is 5.9 M and the unfolding free energy turned out to be 15.1 kcal/mol.
